For experiment [1], the system named is MC5R. The note with it: at 100 μM concentrations, β-galactosidase assay; cited from earlier work.
Experiment [2] addresses mMC5R (Mus musculus, UniProt P41149). The experiment in a line: cell-based.
For experiment [3], the target named is mouse melanocortin-3 receptor (mouse) (UniProt P33033).
Experiment [4] deals with mouse melanocortin-5 receptor (mouse) (UniProt P41149).
For experiment [5], the target named is mouse melanocortin-1 receptor (mouse) (UniProt Q01727).
Chain of mouse melanocortin-1 receptor (mouse) (Q01727 whole entry): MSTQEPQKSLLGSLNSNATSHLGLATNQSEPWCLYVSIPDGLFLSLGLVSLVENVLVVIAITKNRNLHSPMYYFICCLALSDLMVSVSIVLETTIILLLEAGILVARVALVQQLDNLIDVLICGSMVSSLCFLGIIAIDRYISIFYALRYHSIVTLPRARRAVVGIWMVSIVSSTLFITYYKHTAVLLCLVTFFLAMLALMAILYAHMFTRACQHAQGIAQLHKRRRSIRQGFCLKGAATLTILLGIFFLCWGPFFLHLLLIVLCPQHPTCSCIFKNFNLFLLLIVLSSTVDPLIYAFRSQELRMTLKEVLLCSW
Experiment [6] addresses mouse melanocortin-4 receptor (mouse) (UniProt P56450).
Experiment [7] concerns the target mMC3R (Mus musculus, UniProt P33033). As to conditions: read-out: Ki app at mMC3R; displacement of radiolabeled NDP-MSH; cited from earlier work.
Experiment [8] deals with mMC1R (Mus musculus, UniProt Q01727). As to conditions: read-out: Ki app at mMC1R; displacement of radiolabeled NDP-MSH; cited from earlier work.
Chain of mMC1R (Q01727 whole entry): as above
Experiment [9] deals with mMC4R (Mus musculus, UniProt P56450). The note with it: read-out: Ki app at mMC4R; displacement of radiolabeled NDP-MSH; cited from earlier work.
Chain of mMC4R (P56450 whole entry): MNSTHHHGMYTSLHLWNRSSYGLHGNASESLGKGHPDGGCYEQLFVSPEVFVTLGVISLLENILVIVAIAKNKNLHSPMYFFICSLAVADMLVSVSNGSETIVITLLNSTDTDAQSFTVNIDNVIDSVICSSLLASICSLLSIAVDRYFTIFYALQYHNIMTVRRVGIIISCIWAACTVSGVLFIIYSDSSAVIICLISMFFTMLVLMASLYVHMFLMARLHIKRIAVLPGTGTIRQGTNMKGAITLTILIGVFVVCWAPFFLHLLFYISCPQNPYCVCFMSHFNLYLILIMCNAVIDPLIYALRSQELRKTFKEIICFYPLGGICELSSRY

Non-standard residues stand in square brackets, D forms with d. Where only a bound is given, the exact number is not on record here.

Chain of mouse melanocortin-4 receptor (mouse) (P56450 whole entry): as above
Chain of mouse melanocortin-3 receptor (mouse) (P33033 whole entry): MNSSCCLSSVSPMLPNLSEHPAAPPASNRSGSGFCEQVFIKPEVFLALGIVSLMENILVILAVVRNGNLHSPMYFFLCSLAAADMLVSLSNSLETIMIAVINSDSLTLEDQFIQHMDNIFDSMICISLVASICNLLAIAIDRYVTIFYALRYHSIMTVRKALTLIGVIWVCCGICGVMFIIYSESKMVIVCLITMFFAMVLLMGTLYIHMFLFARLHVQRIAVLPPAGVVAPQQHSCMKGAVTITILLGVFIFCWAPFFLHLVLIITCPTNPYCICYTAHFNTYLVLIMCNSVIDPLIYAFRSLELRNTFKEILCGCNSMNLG
Chain of mouse melanocortin-5 receptor (mouse) (P41149 whole entry): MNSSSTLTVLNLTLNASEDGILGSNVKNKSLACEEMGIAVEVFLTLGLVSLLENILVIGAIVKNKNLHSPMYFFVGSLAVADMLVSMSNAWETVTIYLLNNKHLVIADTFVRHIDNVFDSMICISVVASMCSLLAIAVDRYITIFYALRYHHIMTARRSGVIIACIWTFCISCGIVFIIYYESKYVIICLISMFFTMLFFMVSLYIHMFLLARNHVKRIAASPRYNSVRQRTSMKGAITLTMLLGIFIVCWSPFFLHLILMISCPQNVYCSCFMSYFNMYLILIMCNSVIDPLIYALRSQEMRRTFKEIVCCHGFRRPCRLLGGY
Chain of mMC3R (P33033 whole entry): as the sequence (P33033 whole entry) above
Chain of mMC5R (P41149 whole entry): as the sequence (P41149 whole entry) above

`C[C@@H]1NC(=O)[C@H](CC(N)=O)NC(=O)[C@H](Cc2ccccc2)NC(=O)[C@H](Cc2ccccc2)NC(=O)[C@H](CCCNC(=N)N)NC(=O)[C@@H]2CCCN2C(=O)[C@H]2CCCN2C(=O)[C@H](Cc2ccccc2)NC1=O` [Peptide 1, c[Pro-Arg-Phe-Phe-Asn-Ala-Phe-DPro]]: the “activity at the MC5R” value in [1] is listed as “no activity”.
As to `C[C@@H]1NC(=O)[C@H](CN)NC(=O)[C@H](Cc2ccccc2)NC(=O)[C@H](Cc2ccccc2)NC(=O)[C@H](CCCNC(=N)N)NC(=O)[C@@H]2CCCN2C(=O)[C@H]2CCCN2C(=O)[C@H](Cc2ccccc2)NC1=O` [Peptide 2, c[Pro-Arg-Phe-Phe-Dap-Ala-Phe-DPro]], the “activity at the MC5R” value in [1] is “no activity”. This molecule also displayed an EC50 in [2] of 0.06 µM.
“c[Pro-Arg-Phe-Phe-Nle-Ala-Phe-DPro] (peptide)”: the agonist EC50 (cAMP AlphaScreen, HEK293 cells stably expressing the receptor) in experiment [3], in experiment [4], in [5] and in experiment [6] was more than 100 µM throughout.

B1: c[Pro-Arg-Phe-Phe-Asn-Leu-Phe-DPro] (peptide)
peptide: cyclo(PRFFNLF[dP])
SMILES: CC(C)C[C@@H]1NC(=O)[C@H](CC(N)=O)NC(=O)[C@H](Cc2ccccc2)NC(=O)[C@H](Cc2ccccc2)NC(=O)[C@H](CCCNC(=N)N)NC(=O)[C@@H]2CCCN2C(=O)[C@H]2CCCN2C(=O)[C@H](Cc2ccccc2)NC1=O
B1 registered an agonist EC50 (cAMP AlphaScreen, HEK293 cells stably expressing the receptor) in [4] of more than 100 µM.

B2: mASP: recombinant mouse agouti-signaling protein (protein, UniProt Q03288 23-131, looked up)
Agouti-signaling protein: HLALEETLGDDRSLRSNSSMNSLDFSSVSIVALNKKSKKISRKEAEKRKRSSKKKASMKKVARPPPPSPCVATRDSCKPPAPACCDPCASCQCRFFGSACTCRVLNPNC
For the molecule B2, the Ki in [7] was 0.19 µM; in experiment [8] it was 0.0026 µM; in experiment [9] it was 0.054 µM.

B3: c[Pro-Arg-Phe-Phe-Phe-Ala-Phe-DPro] (peptide)
peptide: cyclo(PRFFFAF[dP])
SMILES: C[C@@H]1NC(=O)[C@H](Cc2ccccc2)NC(=O)[C@H](Cc2ccccc2)NC(=O)[C@H](Cc2ccccc2)NC(=O)[C@H](CCCNC(=N)N)NC(=O)[C@@H]2CCCN2C(=O)[C@H]2CCCN2C(=O)[C@H](Cc2ccccc2)NC1=O
As for B3, the agonist EC50 (cAMP AlphaScreen, HEK293 cells stably expressing the receptor) in experiment [3], in experiment [4], in [5] and in [6] was more than 100 µM each time.

B4: c[Pro-Arg-Phe-Phe-Asn-His-Phe-DPro] (peptide)
peptide: cyclo(PRFFNHF[dP])
SMILES: N=C(N)NCCC[C@@H]1NC(=O)[C@@H]2CCCN2C(=O)[C@H]2CCCN2C(=O)[C@H](Cc2ccccc2)NC(=O)[C@H](Cc2c[nH]cn2)NC(=O)[C@H](CC(N)=O)NC(=O)[C@H](Cc2ccccc2)NC(=O)[C@H](Cc2ccccc2)NC1=O
For the molecule B4, the agonist EC50 (cAMP AlphaScreen, HEK293 cells stably expressing the receptor) in [3], in experiment [4] and in experiment [6] was more than 100 µM each time.

B5: c[Pro-Arg-Phe-Phe-Asn-Glu-Phe-DPro] (peptide)
peptide: cyclo(PRFFNEF[dP])
SMILES: N=C(N)NCCC[C@@H]1NC(=O)[C@@H]2CCCN2C(=O)[C@H]2CCCN2C(=O)[C@H](Cc2ccccc2)NC(=O)[C@H](CCC(=O)O)NC(=O)[C@H](CC(N)=O)NC(=O)[C@H](Cc2ccccc2)NC(=O)[C@H](Cc2ccccc2)NC1=O
Regarding B5, the agonist EC50 (cAMP AlphaScreen, HEK293 cells stably expressing the receptor) in experiment [3], in [4] and in experiment [6] was more than 100 µM throughout.

The values above are taken from publication PMC5645029 (Journal of medicinal chemistry, 2017).
